Data as given in the supplement of paper PMC10567573.
± gives the standard deviation.

Assay: protein stability index of a GFP-peptide fusion (GPS, HEK-293T) (PSI 1-6); higher = more stable
[1] = treatment: DMSO, c terminus: native
[2] = treatment: MLN4924 1 uM, 8 h, c terminus: native
[3] = treatment: DMSO, c terminus: a fixed tail appended
[4] = treatment: MLN4924 1 uM, 8 h, c terminus: a fixed tail appended
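Also: 24-mer peptide tiles fused after GFP, lentivirally expressed, FACS-sorted into six equal bins by GFP/DsRed ratio, decoded by Illumina sequencing, PSI is the read-weighted mean bin number.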

Sequence	protein stability index [1]	protein stability index [2]	protein stability index [3]	protein stability index [4]
NDMRDTPLHRAAFTGRKICSQGS [OSBPL1A]	2.87 ± 0.22	2.73 ± 0.39	–	–
EIELQAQHNLRDSLENTLTESEAH [KRT34]	–	–	5.3 ± 0.27	5.18 ± 0.16
KDGKNWNSNQATDIMETSGWKSMI [SPOPL]	–	–	3.38 ± 0.32	3.54 ± 0.4
VNARQKQGIYEEYEDIRRENPVGT [PTPN9]	–	–	4.83 ± 0.37	4.96 ± 0.29
DRKSVKFVETRLRDLPDTPRRFTF [TRIM39]	–	–	2.98 ± 0.12	3.08 ± 0.29
SEEKLALDNNASASGNATQTESGS [C10orf62]	–	–	5.55 ± 0.15	5.6 ± 0.19
AFRSDDTKGHPRAVSQPFRLSSSL [CDC14A]	–	–	3.43 ± 0.2	3.47 ± 0.26
SFQLFVEGYKDADYWLRRFEAEPL [PI4K2A]	–	–	1.92 ± 0.41	2.35 ± 0.25
CDPGTDPCPEDASTPRPPEASSSP [TLE6]	–	–	5.61 ± 0.26	5.58 ± 0.28
LDQAPKARKYFERLPGGGWTLRRT [DYRK1B]	–	–	3.48 ± 0.27	3.33 ± 0.33
PVIIAAVGTRQNEELPCTCPLCTS [RHOBTB3]	–	–	3.76 ± 0.37	3.92 ± 0.35
LSQPTTNLVAGCLQLNARSFMMGQ [NEUROD6]	–	–	2.31 ± 0.17	2.21 ± 0.26
MTSISLPSVMDPGAFETVLASAYT [ZBTB22]	–	–	2.57 ± 0.23	2.72 ± 0.26
EDSIPLRGLSQNLFSNSDHQRDGT [SASS6]	–	–	4.94 ± 0.15	4.99 ± 0.2
LEALIDTIQKQLKDHSCKDNIREA [EFHC1]	–	–	3.55 ± 0.21	3.65 ± 0.25
VAETSGETIQGFWLLTKIDHWNNE [TPRG1]	–	–	2.11 ± 0.36	2.31 ± 0.26
SLGSESEEEEEFYDADEETQMIK [SLC22A15]	5.01 ± 0.35	4.92 ± 0.37	–	–
LHPFFAGLTPEERSFHTSRNPSR [CLK3]	2.72 ± 0.38	2.73 ± 0.52	–	–
DDYTSAIEVQPNFEVPYYNRGLIL [TTC32]	–	–	2.4 ± 0.45	2.42 ± 0.38
AGGELGISLNMCLLGALVLLGLGV [PBXIP1]	–	–	2.72 ± 1	2.7 ± 0.87
RHPPKVGDDSDLSEGFESDSSHDS [SMG5]	–	–	5.46 ± 0.18	5.51 ± 0.21
TILNVRDPTGASIALFTARLHHPH [PTPN9]	–	–	2.5 ± 0.21	1.89 ± 0.18

Sequence	protein stability index [1]	protein stability index [2]	protein stability index [3]	protein stability index [4]
RIFAHKIYLSTSSSKFYDLFLMDL [RHOBTB2]	–	–	2.97 ± 0.31	2.86 ± 0.66
IVSLLLGTIHALIFAWNKWIDIKQ [STEAP1]	–	–	2.06 ± 0.44	2.17 ± 0.29
RPIGEFRSNADYQYQLLRCNVDLL [CNOT7]	–	–	2.5 ± 0.2	2.47 ± 0.16
TRRSTAEAFQIVLSHLLGDAGSPY [SPNS1]	–	–	2.52 ± 0.58	2.56 ± 0.46
DSFVCQCSEGFLINEDLKTCSRVD [MATN2]	–	–	3.57 ± 0.38	3.9 ± 0.45
LLNTDLHGHNIGKKMSCQQFIANL [PSD2]	–	–	2.24 ± 0.29	2.46 ± 0.13
SVSRPEGRSWPSAPDDSKAQAHRI [PDLIM4]	–	–	4.76 ± 0.21	4.95 ± 0.18
EPGTPSSSPDDKLLTSPRAINNLV [KLHL14]	–	–	4.87 ± 0.16	4.91 ± 0.34
PCPSTTCCRACSVSFSTGAGGWSN [BET1L]	–	–	2.27 ± 0.91	2.02 ± 0.47
DDSPRSALAAATAAAAAAASAAAA [SPAG8]	–	–	4.79 ± 0.39	4.86 ± 0.42
AEKKQELDKLRNEWASHTAALTNK [SASS6]	–	–	4.38 ± 0.26	4.79 ± 0.25
DHIIEKKRTIIPTLVEAIKEQDGR [DFFB]	–	–	4.63 ± 0.24	4.68 ± 0.2
ILDIHFLSQADFLVCTFSSQVCRV [FUT8]	–	–	3.52 ± 0.23	3.09 ± 0.16
VVETVFFLTSRTRALLRRFPRMLL [ZSWIM9]	–	–	2.89 ± 0.095	2.87 ± 0.3
HVLLEGEGLGQSLGNFKDDLLNVC [TRIM29]	–	–	3.06 ± 0.041	3.1 ± 0.17
LTVRLHTQSVSECITEDGRTVAVG [PWWP2B]	–	–	3.2 ± 0.33	3.15 ± 0.044
AMPDPAGPDGHLPAVATLCDLFDR [ESRRA]	–	–	4.27 ± 0.23	4.4 ± 0.23
SKAVFLWNMDKYTMIRKLEGHHHD [WSB1]	–	–	2.24 ± 0.16	2.24 ± 0.33
RKFYVHIKPAPARAPACSPEAAAA [FCHO1]	–	–	2.66 ± 0.3	2.82 ± 0.35
DEGRLVLEFSLLSYAFGKFPTVVW [SOAT1]	–	–	2.33 ± 0.68	3.07 ± 0.14
SAVTSVRILQDEQYLMASDMAGKI [DCAF4]	–	–	3.33 ± 0.18	3.29 ± 0.27
RPSMASELMPSSRLWSLSYTKLPS [SLC25A39]	–	–	2.99 ± 0.19	2.92 ± 0.26

Sequence	protein stability index [1]	protein stability index [2]	protein stability index [3]	protein stability index [4]
FQEAQIKRKARNEGRNRRRQQVLP [CDKL4]	–	–	3.79 ± 0.54	4.08 ± 0.14
QDNNCHFDAALVSFINFFTSVLAT [SLC6A17]	–	–	2.91 ± 0.3	2.75 ± 0.3
AKVNILLVENDQQLQKILSIPQSS [ACSBG2]	–	–	2.21 ± 0.17	2.07 ± 0.18
DLDETLIHSHHDGVLRPTVRPGTP [CTDNEP1]	–	–	4.53 ± 0.086	4.67 ± 0.21
EAEDQEEKEDAEKENIEKDEDDVD [SRPK2]	–	–	5.66 ± 0.32	5.79 ± 0.2
VHRQLGEANEEFALRVQQLVAKEL [AUP1]	–	–	3.79 ± 0.076	3.88 ± 0.1
LPSVTDIRRPRLYLLQWLKSDKAL [PLK2]	–	–	2.33 ± 0.24	2.36 ± 0.49
HETESTSDKETDIDDRYGDLDSRT [CDS1]	–	–	5.42 ± 0.19	5.6 ± 0.22
KPASKPAGSSHTPSSQSSSGGGRD [ELOA2]	–	–	5.47 ± 0.3	5.48 ± 0.19
HHAKDSEGVEIMLGVCASGLLIYR [EPB41L3]	–	–	2.12 ± 0.69	2.14 ± 0.61
GEKSENNSSNSDIVHVEKEEVPEG [BCL2L13]	–	–	5.8 ± 0.2	5.3 ± 0.76
ALAAATAAAAAAASAAAATAAFTT [SPAG8]	–	–	3.04 ± 0.18	3.25 ± 0.18
ELLWKLQTGDPTSPIKLSPTSPVY [MTUS2]	–	–	2.3 ± 0.32	2.36 ± 0.16
ISFHFEVTNHNIRLFEDVRSWMFR [TRIM43]	–	–	2.7 ± 0.96	3.24 ± 0.28
EMLTGQERVALANRKRECGNAHYQ [FKBP8]	–	–	3.71 ± 0.23	3.86 ± 0.27
YMGKGSMTGLALKHMFERSFTQGE [MATN2]	–	–	2.37 ± 0.23	3.07 ± 0.18
ISSVLAGGSCRAPSTYGGGLSVSS [KRT16]	–	–	2.38 ± 0.33	2.27 ± 0.27
LPLMDLCRRSIRSALGRQRLQDIS [SPSB4]	–	–	2.62 ± 0.12	2.53 ± 0.34
EADINGLRRVLDELTLSKTDLEMQ [KRT13]	–	–	4.32 ± 0.079	4.26 ± 0.3
EGSLEWDILEVKRLLDHQDNILSL [WDR41]	–	–	2.42 ± 0.2	2.53 ± 0.21
CQGVSEAAHRLARRLYHLEGFQRC [PSD2]	–	–	2.41 ± 0.21	2.54 ± 0.17
